This is an account of results in the RNAGym collection of RNA variant scans (doi:10.7554/elife.80360).

The labels stand for the following.
B1: CPEB3 Ribozyme (parent)
chain: GGGGGCCACAGCAGAAGCGUUCACGUCGCGGCCCCUGUCAGAUUCUGGUGAAUCUGCGAAUUCUGCUGU

Variants of B1 are the subject of this data set. Put plainly: self-cleavage, relative activity (ratio to wild type); higher = more cleavage; co-transcriptional.
Turning to UGGGGCCACAGCAGAAGCGUUCACGUCGCGGCCCCUGUCAGAUUCUGGUGAAUCUGCGAAUUCUGCAGU [G1U U67A], the self-cleavage amounted to 0.167.
Turning to UGGGGCCACAGCAGAAGCGUUCACGUCGCGGCCCCUGUCAGAUUCUGGUGAAUCUGCGAAUUCUGCCGU [G1U U67C], the self-cleavage amounted to 0.0935.
The value for UGGGGCCACAGCAGAAGCGUUCACGUCGCGGCCCCUGUCAGAUUCUGGUGAAUCUGCGAAUUCUGCGGU [G1U U67G] was 0.204.
Regarding GAGGGCCACAGGAGAAGCGUUCACGUCGCGGCCCCUGUCAGAUUCUGGUGAAUCUGCGAAUUCUGCUGU [G2A C12G], the self-cleavage was 0.123.
The value for GAGGGCCACAGCAGAAGCGUUCACGUCGCGGCCCCUGUCAGAUUCUGGUGUAUCUGCGAAUUCUGCUGU [G2A A51U] was 0.233; that for GAGGGCCACAGCAGAAGCGUUCACGUCGCGGCCCCUGUCAGAUUCUGGUGGAUCUGCGAAUUCUGCUGU [G2A A51G] was 0.158; that for GAGGGCCACAGCAGAAGCGUUCACGUCGCGGCCCCUGUCAGAUUCUGGUGCAUCUGCGAAUUCUGCUGU [G2A A51C] was 0.0717.
For the variant GAGGGCCACAGCAGAAGCGUUCACGUCGCGGUCCCUGUCAGAUUCUGGUGAAUCUGCGAAUUCUGCUGU [G2A C32U], the self-cleavage was determined as 0.0612.
On to GAGGCCCACAGCAGAAGCGUUCACGUCGCGGCCCCUGUCAGAUUCUGGUGAAUCUGCGAAUUCUGCUGU [G2A G5C], for which the self-cleavage came out at 0.122.
The value for GAGGACCACAGCAGAAGCGUUCACGUCGCGGCCCCUGUCAGAUUCUGGUGAAUCUGCGAAUUCUGCUGU [G2A G5A] was 0.0392; that for GAGGGCCACGGCAGAAGCGUUCACGUCGCGGCCCCUGUCAGAUUCUGGUGAAUCUGCGAAUUCUGCUGU [G2A A10G] was 0.201.
The value for GAGGGCCACCGCAGAAGCGUUCACGUCGCGGCCCCUGUCAGAUUCUGGUGAAUCUGCGAAUUCUGCUGU [G2A A10C] was 0.259.
The figure for GAGGGCCACAGCAGAUGCGUUCACGUCGCGGCCCCUGUCAGAUUCUGGUGAAUCUGCGAAUUCUGCUGU [G2A A16U] is 0.1; for GAGGGCCACAGCAGAAGCGUUCACGUCGCGGCCCGUGUCAGAUUCUGGUGAAUCUGCGAAUUCUGCUGU [G2A C35G] it is 0.0841.
For the variant GAGGGCCACAGCAGAAGCGUUCACGUCGCGGCCCUUGUCAGAUUCUGGUGAAUCUGCGAAUUCUGCUGU [G2A C35U], the self-cleavage was 0.542.
For GAGGGCCACAGCAGAAGCGUUCACGUCGCGGCCCAUGUCAGAUUCUGGUGAAUCUGCGAAUUCUGCUGU [G2A C35A], the self-cleavage turned out to be 0.0641.
The figure for GAGGGCCACAGCAGAAGCGUUCGCGUCGCGGCCCCUGUCAGAUUCUGGUGAAUCUGCGAAUUCUGCUGU [G2A A23G] is 0.15; for GAGGGCCACAGCAGAAGCGUUCCCGUCGCGGCCCCUGUCAGAUUCUGGUGAAUCUGCGAAUUCUGCUGU [G2A A23C] it is 0.111; for GAGGGCCACACCAGAAGCGUUCACGUCGCGGCCCCUGUCAGAUUCUGGUGAAUCUGCGAAUUCUGCUGU [G2A G11C] it is 0.0914.
The figure for GAGGGCCACAUCAGAAGCGUUCACGUCGCGGCCCCUGUCAGAUUCUGGUGAAUCUGCGAAUUCUGCUGU [G2A G11U] is 0.117.
Take GAGGGCCACAACAGAAGCGUUCACGUCGCGGCCCCUGUCAGAUUCUGGUGAAUCUGCGAAUUCUGCUGU [G2A G11A]: the self-cleavage amounted to 0.101.
The figure for GAGGGCCACAGCAGAAGCGUUCACGUCGCGGCUCCUGUCAGAUUCUGGUGAAUCUGCGAAUUCUGCUGU [G2A C33U] is 0.0941; for GAGGGCCACAGCAGAAGCGUUCACGUCGCGGCACCUGUCAGAUUCUGGUGAAUCUGCGAAUUCUGCUGU [G2A C33A] it is 0.0406.
As for GAGGGCCACAGCAGAAGCGUUCACGUCGGGGCCCCUGUCAGAUUCUGGUGAAUCUGCGAAUUCUGCUGU [G2A C29G], the self-cleavage stood at 0.0351.
Turning to GAGGGCCACAGCAGAAGCGUUCACGUCGUGGCCCCUGUCAGAUUCUGGUGAAUCUGCGAAUUCUGCUGU [G2A C29U], the self-cleavage turned out to be 0.0474.
The figure for GAGGGCCACAGCAGAAGCGUUCACGUCGAGGCCCCUGUCAGAUUCUGGUGAAUCUGCGAAUUCUGCUGU [G2A C29A] is 0.0397; for GAAGGCCACAGCAGAAGCGUUCACGUCGCGGCCCCUGUCAGAUUCUGGUGAAUCUGCGAAUUCUGCUGU [G2A G3A] it is 0.0827.
With GACGGCCACAGCAGAAGCGUUCACGUCGCGGCCCCUGUCAGAUUCUGGUGAAUCUGCGAAUUCUGCUGU [G2A G3C], the self-cleavage came out at 0.176.
With GAUGGCCACAGCAGAAGCGUUCACGUCGCGGCCCCUGUCAGAUUCUGGUGAAUCUGCGAAUUCUGCUGU [G2A G3U], the self-cleavage was determined as 0.0425.
The value for UGGGGCCACAGCAGAAGCGUUCACGUCGCGGCCCCUGUCAGAUUCUGGUGAAUCUGCGAAUUCUGCUGG [G1U U69G] was 0.265; that for UGGGGCCACAGCAGAAGCGUUCACGUCGCGGCCCCUGUCAGAUUCUGGUGAAUCUGCGAAUUCUGCUGA [G1U U69A] was 0.194.
The figure for GAGGGCCACAGCAGAAGCGUUCACGUCGCGGCCCCUGUUAGAUUCUGGUGAAUCUGCGAAUUCUGCUGU [G2A C39U] is 0.072; for GAGGGCCACAGCAGAAGCGUUCACGUCGCGGCCCCUGUAAGAUUCUGGUGAAUCUGCGAAUUCUGCUGU [G2A C39A] it is 0.032.
In the case of GAGGGCCACAGCAGAAGCGUUCACGUCGCGGCCCCUGUCAGAUUCUGGUGAAUCUGCGCAUUCUGCUGU [G2A A59C], the self-cleavage is 0.0548.
In the case of GAGGGCCACAGCAGAAGCGUUCACGUCGCGGCCCCUGUCAGAUUCUGGUGAAUCUGCGGAUUCUGCUGU [G2A A59G], the self-cleavage was 0.129.
For the variant GAGGGCCACAGCAGAAGCGUUCACGUCGCGGCCCCUGUCAGAUUCUGGUGAAUCUGCGUAUUCUGCUGU [G2A A59U], the self-cleavage amounted to 0.0616.
Turning to GAGGGCCACAGCAGAAGCGUUCACGUCGCGGCCCCUGUCAGAUUCUGGUGAAUCUGCGAAUUGUGCUGU [G2A C63G], the self-cleavage was 0.0931.
In the case of GAGGGCCACAGCAGAAGCGUUCACGUCGCGGCCCCUGUCAGAUUCUGGUGAAUCUGCGAAUUUUGCUGU [G2A C63U], the self-cleavage amounted to 0.173.
The figure for GAGGGCCACAGCAGAAGCGUUCACGUCGCGGCCCCUGUCAGAUUCUGGUGAAUCUGCGAAUUCUGCUGU [G2A] is 0.216.
